Experimental data from the supplement of paper PMC10724198.
± gives the standard deviation of the averaged measurements.

Tested on: Saccharomyces cerevisiae
Experiment: protein stability index of tFT-peptide fusion (C-terminal peptide) (PSI (0-1 scale)); higher = more stable (slower turnover)
Conditions: genetic background: doa10 deletion; temperature: 30 C
Protocol: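 MPS profiling in S. cerevisiae of the tFT-X12 degron library: putative degron peptides plus stable controls, 12 aa, fused to the C-terminus of a sfGFP-mCherry timer. Cells are FACS-sorted into 8 mCherry/sfGFP bins and deep-sequenced. PSI runs from 0 (unstable) to 1 (stable). Backgrounds are wild type, das1Δ and doa10Δ at 30 °C, and wild type, das1Δ, cdc34-1 and cdc53-1 at 37 °C; 2-3 technical replicates each.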
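Note: PSI is a weighted mean of sequencing reads over stability bins, variants kept only with over 10 reads, mCherry proximal and sfGFP distal, peptide attached via GGGS linker.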

Compared with PPSRVSIRLLIR, PRFLRWLFSLLI is higher in protein stability index: 0.374 ± 0.0089 for the first, 0.597 ± 0.0095 for the second.

First: PRINTFVVVRVC
Second: PSCLLVAPRFSS
The protein stability index of the first is lower: 0.0626 ± 0.015 for the first, 0.677 ± 0.014 for the second.

First: PSFSLLRSLTLI
Second: PTYTKYRTRQIN
The protein stability index of the first is higher: 0.192 ± 0.02 for the first, 0.0947 ± 0.015 for the second.

Going from PVILISWQLRCY to PVPPRVNLLRVS, the protein stability index rises from 0.0188 ± 0.0012 to 0.215 ± 0.0024.

Going from PVWLSFHFFLCA to QIDYSVYIFALG, the protein stability index falls from 0.321 ± 0.02 to 0.261 ± 0.0014.

First: QRFASFFFLHLS
Second: QRTNTIINKRIV
The protein stability index of the first is lower: 0.157 ± 0.028 for the first, 0.478 ± 0.03 for the second.

RALSLPPLLLVL and RCIFYHSPVLCL are within error of each other in protein stability index: 0.338 ± 0.029 for the first, 0.365 ± 0.0064 for the second.

First: RCQILSYCLLFV
Second: RCSLRLRFIFVR
The protein stability index of the first is higher: 0.381 ± 0.025 for the first, 0.254 ± 0.024 for the second.

Going from RFFFASRYIECF to RFWFTFYLIAVF, the protein stability index falls from 0.187 ± 0.0019 to 0.0617 ± 0.016.

Going from RGWGGGTWVKMG to RGYSAIWGCKMN, the protein stability index rises from 0.113 ± 0.019 to 0.184 ± 0.021.

Going from RIIDRVSRLIML to RKFRAWIRITRT, the protein stability index falls from 0.453 ± 0.021 to 0.219 ± 0.01.

Going from RLCKGQKYTKIN to RLRWLSPMTHVG, the protein stability index rises from 0.0852 ± 0.02 to 0.263 ± 0.0086.

First: RLSGACILLSLV
Second: RLSLCLAVLFLV
The protein stability index of the first is higher: 0.217 ± 0.0063 for the first, 0.116 ± 0.0062 for the second.

First: RPSHTSVYRLLH
Second: RRLAVWCDFRSL
The protein stability index of the first is lower: 0.114 ± 0.019 for the first, 0.416 ± 0.0061 for the second.

First: RRPVHTHTSVSP
Second: RRRGIYARASVV
The protein stability index of the first is higher: 0.658 ± 0.022 for the first, 0.249 ± 0.0044 for the second.

RSITFFPVCLVK and RSLSFGMVLCYS are within error of each other in protein stability index: 0.253 ± 0.021 for the first, 0.228 ± 0.012 for the second.

Going from RSLSWCTKRRCC to RSSGHLLDGRAF, the protein stability index rises from 0.221 ± 0.015 to 0.631 ± 0.029.

First: RVGGVVVLGCVG
Second: RVGYSIIIIGIE
The protein stability index of the first is higher: 0.555 ± 0.027 for the first, 0.244 ± 0.0084 for the second.

First: RVWIVCYHVSSY
Second: RWSEHGFLVFLS
The protein stability index of the first is higher: 0.196 ± 0.0097 for the first, 0.156 ± 0.015 for the second.

Going from SARSYLTERLLA to SASPFYLPPPPV, the protein stability index rises from 0.13 ± 0.018 to 0.675 ± 0.018.

Compared with SAVLFLLFVYVR, SCIFVSSYFFVF is higher in protein stability index: 0.1678 ± 0.00051 for the first, 0.179 ± 0.0043 for the second.

Going from SCLRVYFSVVVS to SCLSLALLVFFG, the protein stability index rises from 0.258 ± 0.0076 to 0.315 ± 0.0051.

Going from SFFFSFFPYFFC to SFTVFVVLLFPP, the protein stability index falls from 0.401 ± 0.012 to 0.288 ± 0.013.

First: SFVGCWFVLLVR
Second: SFWLFSSIGVCF
The protein stability index of the first is lower: 0.193 ± 0.0003 for the first, 0.4316 ± 0.00081 for the second.

Going from SGMLVYFGTVCY to SKSRKTGWMLIS, the protein stability index falls from 0.318 ± 0.028 to 0.156 ± 0.014.

Going from SLFSPPVLATPS to SLGHIGFWRFAG, the protein stability index falls from 0.556 ± 0.02 to 0.103 ± 0.018.

First: SLLFVFVSVGCI
Second: SLRSLYLLARLS
The protein stability index of the first is higher: 0.116 ± 0.0038 for the first, 0.076 ± 0.017 for the second.

Compared with SLSPVFVAVWFL, SLVLLLLITFSL is higher in protein stability index: 0.323 ± 0.0075 for the first, 0.377 ± 0.016 for the second.

Compared with SNFFPVPLLLFR, SPCFLDPPRLIS is lower in protein stability index: 0.647 ± 0.024 for the first, 0.287 ± 0.018 for the second.

Compared with SPLHGFLFLVLL, SPLLPPPLLFLS is lower in protein stability index: 0.528 ± 0.024 for the first, 0.1475 ± 0.0013 for the second.

First: SRDSLLTLIPSC
Second: SRLVIGRWSVLV
The protein stability index of the first is higher: 0.622 ± 0.017 for the first, 0.177 ± 0.013 for the second.

First: SRPEPNGLRKLV
Second: SSAPTIVIWRFS
The protein stability index of the first is lower: 0.139 ± 0.024 for the first, 0.401 ± 0.024 for the second.

SSGSLLLPRFLT and SSLLPLLAQLVG are within error of each other in protein stability index: 0.222 ± 0.019 for the first, 0.252 ± 0.014 for the second.

Compared with SSMSAVFRLQVC, SSRPLSPQSLRL is higher in protein stability index: 0.228 ± 0.001 for the first, 0.60715 ± 0.00031 for the second.

First: SSVCLYWCCLFV
Second: SSVCYFGLLFIV
The protein stability index of the first is higher: 0.407 ± 0.0018 for the first, 0.103 ± 0.0046 for the second.

Compared with SVFRFLFLALLV, SVFVFFGFIDFL is higher in protein stability index: 0.173 ± 0.0056 for the first, 0.369 ± 0.015 for the second.

Compared with SVLASFFSAFVC, SVLLVFRFFWEL is higher in protein stability index: 0.118 ± 0.015 for the first, 0.295 ± 0.018 for the second.

First: SVLVWVFGLFVI
Second: SVMTFVFFISAF
The protein stability index of the first is higher: 0.42 ± 0.028 for the first, 0.212 ± 0.0043 for the second.

Compared with SWRRCLSSIPVA, SWVVLVSFLSWR is lower in protein stability index: 0.276 ± 0.0056 for the first, 0.233 ± 0.0082 for the second.

Same assay, conditions: genetic background: wild type; temperature: 30 C

Compared with PPSRVSIRLLIR, PRFLRWLFSLLI is higher in protein stability index: 0.371 ± 0.0086 for the first, 0.592 ± 0.014 for the second.

Compared with PRINTFVVVRVC, PSCLLVAPRFSS is higher in protein stability index: 0.0722 ± 0.018 for the first, 0.694 ± 0.019 for the second.

Going from PSFSLLRSLTLI to PTYTKYRTRQIN, the protein stability index falls from 0.205 ± 0.022 to 0.133 ± 0.04.

Going from PVILISWQLRCY to PVPPRVNLLRVS, the protein stability index rises from 0.0174 ± 0.0032 to 0.263 ± 0.031.

PVWLSFHFFLCA and QIDYSVYIFALG are within error of each other in protein stability index: 0.332 ± 0.017 for the first, 0.302 ± 0.023 for the second.

Compared with QRFASFFFLHLS, QRTNTIINKRIV is higher in protein stability index: 0.142 ± 0.036 for the first, 0.477 ± 0.028 for the second.

First: RALSLPPLLLVL
Second: RCIFYHSPVLCL
The protein stability index of the first is lower: 0.326 ± 0.029 for the first, 0.398 ± 0.018 for the second.

First: RCQILSYCLLFV
Second: RCSLRLRFIFVR
The protein stability index of the first is higher: 0.33 ± 0.024 for the first, 0.104 ± 0.022 for the second.

Going from RFFFASRYIECF to RFWFTFYLIAVF, the protein stability index falls from 0.22 ± 0.036 to 0.0761 ± 0.023.

Going from RGWGGGTWVKMG to RGYSAIWGCKMN, the protein stability index rises from 0.121 ± 0.015 to 0.228 ± 0.018.

Going from RIIDRVSRLIML to RKFRAWIRITRT, the protein stability index falls from 0.482 ± 0.034 to 0.247 ± 0.048.

Compared with RLCKGQKYTKIN, RLRWLSPMTHVG is higher in protein stability index: 0.105 ± 0.026 for the first, 0.286 ± 0.016 for the second.

Going from RLSGACILLSLV to RLSLCLAVLFLV, the protein stability index falls from 0.259 ± 0.022 to 0.126 ± 0.0059.

Going from RPSHTSVYRLLH to RRLAVWCDFRSL, the protein stability index rises from 0.148 ± 0.0086 to 0.454 ± 0.035.

First: RRPVHTHTSVSP
Second: RRRGIYARASVV
The protein stability index of the first is higher: 0.6561 ± 0.0035 for the first, 0.276 ± 0.043 for the second.

RSITFFPVCLVK and RSLSFGMVLCYS are within error of each other in protein stability index: 0.289 ± 0.018 for the first, 0.253 ± 0.028 for the second.

Compared with RSLSWCTKRRCC, RSSGHLLDGRAF is higher in protein stability index: 0.226 ± 0.022 for the first, 0.654 ± 0.021 for the second.

First: RVGGVVVLGCVG
Second: RVGYSIIIIGIE
The protein stability index of the first is higher: 0.5598 ± 0.0053 for the first, 0.303 ± 0.019 for the second.

First: RVWIVCYHVSSY
Second: RWSEHGFLVFLS
The protein stability index of the first is higher: 0.207 ± 0.0069 for the first, 0.158 ± 0.015 for the second.

First: SARSYLTERLLA
Second: SASPFYLPPPPV
The protein stability index of the first is lower: 0.162 ± 0.022 for the first, 0.671 ± 0.023 for the second.

SAVLFLLFVYVR and SCIFVSSYFFVF are within error of each other in protein stability index: 0.14 ± 0.046 for the first, 0.18 ± 0.02 for the second.

Compared with SCLRVYFSVVVS, SCLSLALLVFFG is higher in protein stability index: 0.288 ± 0.017 for the first, 0.349 ± 0.02 for the second.

Going from SFFFSFFPYFFC to SFTVFVVLLFPP, the protein stability index falls from 0.394 ± 0.017 to 0.304 ± 0.0095.

Compared with SFVGCWFVLLVR, SFWLFSSIGVCF is higher in protein stability index: 0.122 ± 0.025 for the first, 0.465 ± 0.011 for the second.

Compared with SGMLVYFGTVCY, SKSRKTGWMLIS is lower in protein stability index: 0.357 ± 0.0091 for the first, 0.164 ± 0.033 for the second.

First: SLFSPPVLATPS
Second: SLGHIGFWRFAG
The protein stability index of the first is higher: 0.569 ± 0.022 for the first, 0.108 ± 0.013 for the second.

Going from SLLFVFVSVGCI to SLRSLYLLARLS, the protein stability index falls from 0.148 ± 0.025 to 0.0777 ± 0.024.

Compared with SLSPVFVAVWFL, SLVLLLLITFSL is higher in protein stability index: 0.331 ± 0.016 for the first, 0.373 ± 0.02 for the second.

SNFFPVPLLLFR and SPCFLDPPRLIS are within error of each other in protein stability index: 0.297 ± 0.019 for the first, 0.328 ± 0.032 for the second.

First: SPLHGFLFLVLL
Second: SPLLPPPLLFLS
The protein stability index of the first is higher: 0.403 ± 0.028 for the first, 0.168 ± 0.033 for the second.

Going from SRDSLLTLIPSC to SRLVIGRWSVLV, the protein stability index falls from 0.636 ± 0.013 to 0.217 ± 0.034.

Going from SRPEPNGLRKLV to SSAPTIVIWRFS, the protein stability index rises from 0.172 ± 0.024 to 0.428 ± 0.011.

SSGSLLLPRFLT and SSLLPLLAQLVG are within error of each other in protein stability index: 0.243 ± 0.038 for the first, 0.265 ± 0.039 for the second.

First: SSMSAVFRLQVC
Second: SSRPLSPQSLRL
The protein stability index of the first is lower: 0.232 ± 0.015 for the first, 0.605 ± 0.067 for the second.

First: SSVCLYWCCLFV
Second: SSVCYFGLLFIV
The protein stability index of the first is higher: 0.426 ± 0.027 for the first, 0.103 ± 0.022 for the second.

First: SVFRFLFLALLV
Second: SVFVFFGFIDFL
The protein stability index of the first is lower: 0.145 ± 0.0078 for the first, 0.412 ± 0.036 for the second.

Going from SVLASFFSAFVC to SVLLVFRFFWEL, the protein stability index rises from 0.118 ± 0.023 to 0.292 ± 0.029.

Compared with SVLVWVFGLFVI, SVMTFVFFISAF is lower in protein stability index: 0.392 ± 0.028 for the first, 0.238 ± 0.037 for the second.

Compared with SWRRCLSSIPVA, SWVVLVSFLSWR is lower in protein stability index: 0.303 ± 0.035 for the first, 0.232 ± 0.032 for the second.
